Assay results from US6140466.

How the values were obtained:
[1] = tested on: C7-C7-VP16 (synthetic (Zif268 variant)); experiment: cell_activity; settings: HeLa luciferase reporter
[2] = tested on: MBP-Sp1C-C7 (six-finger) (synthetic (Sp1C/Zif268 variant)); experiment: EMSA
[3] = target: MBP-Sp1C (synthetic (human Sp1 variant)) (UniProt P08047); experiment: EMSA; settings: 0.1 mM ZnCl2, RT
[4] = tested on: MBP-C7-C7 (six-finger) (synthetic (Zif268 variant, mouse)); experiment: EMSA
[5] = tested on: Zif268 variant G4 finger 2 helix residues changed (FIG. 9) (synthetic (Zif268 variant)); experiment: SPR
[6] = tested on: Zif268 variant G6 finger 2 helix residues changed (FIG. 9) (synthetic (Zif268 variant)); experiment: SPR
[7] = target: Zif268 variant C9 finger 1 helix residues changed (FIG. 9) (synthetic (Zif268 variant)) (UniProt Q6NTY6); experiment: SPR; settings: equivalent to Zif268
Zif268 variant C9 finger 1 helix residues changed (FIG. 9) (synthetic (Zif268 variant)), sequence (Q6NTY6 whole entry, change not shown): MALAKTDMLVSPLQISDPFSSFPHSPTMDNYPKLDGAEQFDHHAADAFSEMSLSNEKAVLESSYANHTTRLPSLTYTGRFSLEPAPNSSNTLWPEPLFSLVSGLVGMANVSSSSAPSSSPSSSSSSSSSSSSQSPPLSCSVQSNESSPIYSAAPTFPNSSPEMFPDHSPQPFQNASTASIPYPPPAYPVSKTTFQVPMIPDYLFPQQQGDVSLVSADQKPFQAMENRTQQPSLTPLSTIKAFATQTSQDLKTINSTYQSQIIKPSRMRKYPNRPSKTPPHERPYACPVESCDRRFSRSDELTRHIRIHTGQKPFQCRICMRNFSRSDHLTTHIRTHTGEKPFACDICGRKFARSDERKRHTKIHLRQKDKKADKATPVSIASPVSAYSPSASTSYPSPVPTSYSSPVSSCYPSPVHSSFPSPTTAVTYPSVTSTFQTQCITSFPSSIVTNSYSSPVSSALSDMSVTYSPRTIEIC

[8] = target: Zif268 variant A14 finger 3 helix residues changed (FIG. 9) (synthetic (Zif268 variant)) (UniProt Q6NTY6); experiment: SPR
Zif268 variant A14 finger 3 helix residues changed (FIG. 9) (synthetic (Zif268 variant)), sequence (Q6NTY6 whole entry, change not shown): as above

[9] = target: Zif268 displayed on phage (Mus musculus) (UniProt P08046); experiment: SELEX; settings: phage panning, same level as BSA
[10] = 9 bp half-site, 0.1 mM ZnCl2, RT
[11] = 0.1 mM ZnCl2, 100 mM KCl, poly(dI-dC), RT

MBP-Sp1C (synthetic (human Sp1 variant)), sequence (P08047 626-708, change not shown): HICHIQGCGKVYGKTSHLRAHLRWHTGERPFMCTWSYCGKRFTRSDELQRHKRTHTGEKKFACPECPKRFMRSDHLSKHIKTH

For “GCGTGGGCG (double strand) [6x C7 site SV40 promoter reporter]”, which activity (fold activation) [1] is on record?
The activity (fold activation) was 3.

How did the Kd [2, 10] turn out when “GATGTATGTAGGGGCGGGGTAAGTAATGC (double strand) [Sp1C site probe]” was run?
The Kd was 27.4 nM.

And the Kd [3]?
The Kd was 40.8 nM.

“GATGTATGTAGCGGCGGCGGCGGCGGCGTAAGTAATGC (double strand) [(GCG)6 site probe]” was tested. Which Kd ([4]; 0.1 mM ZnCl2, RT) did it give?
Its Kd is 17.3 nM.

What does the source list for “CCTGCGTTGGCGCCCTTTTGGGCGCCAACGCAGG [TTG finger 2 hairpin (HIV-1 subsite)]”?
binding signal (fold of Zif268-consensus affinity) ([5]; equivalent to Zif268 on its consensus): 1; binding signal (fold of Zif268-consensus affinity) ([6]; specificity by on-rate): 1

“CCTGCGTGGGCGCCCTTTTGGGCGCCCACGCAGG [Z268N consensus hairpin]” was tested. Which binding signal (fold of Zif268 affinity) [7] did it give?
Its binding signal (fold of Zif268 affinity) is 1.

What about the binding signal (fold lower affinity than Zif268) [8] of the same substance?
The binding signal (fold lower affinity than Zif268) was 2.

And the binding signal (fold weaker than TTG site) [5]?
The binding signal (fold weaker than TTG site) was 4.

What about the binding signal (fold weaker than TTG site) [6] of the same substance?
Its binding signal (fold weaker than TTG site) is 4.

For “GATGTATGTAGCGTGGGCGGCGTGGGCGTAAGTAATGC (double strand) [C7-C7 site probe]”, which Kd ([2]; 0.1 mM ZnCl2, RT) is on record?
Its Kd is 1.8 nM.

And the Kd [4, 11]?
The Kd was 0.46 nM.

For TFIIIA fingers 1-3 site (panning), which binding signal (fold less than consensus) [9] is on record?
Its binding signal (fold less than consensus) is 9.

How did the activity (fold activation) [1] turn out when “GCGTGGGCGGGGGCGGGG (double strand) [6x Sp1C-C7 site SV40 promoter reporter]” was run?
The activity (fold activation) was 3.

What does the source list for “GATGTATGTAGCGTGGGCGTAAGTAATGC (double strand) [C7 site probe]”?
Kd [2, 10]: 4.9 nM; Kd [4, 10]: 6.1 nM

Which activity (fold activation) [1] does the source give for “GCGTGGGCGGCGTGGGCG (double strand) [6x C7-C7 site SV40 promoter reporter]” here?
The activity (fold activation) was over 300.

“GATGTATGTAGCGTGGGCGGGGGCGGGGTAAGTAATGC (double strand) [Sp1C-C7 site probe]” was tested. Which Kd [2, 11] did it give?
The Kd was 0.55 nM.

What about the Kd [4, 11] of the same substance?
The Kd was 2.4 nM.
